Results published in US7122187 (IDEC PHARMACEUTICALS, dated 2006).

T1: human gp39 (cell surface) (human, UniProt P29965 1-261)
T1 construct: whole, on cells; this was read as mgp39-CHO (membrane gp39); also called CD40 ligand; CD40L
T1 sequence (looked up): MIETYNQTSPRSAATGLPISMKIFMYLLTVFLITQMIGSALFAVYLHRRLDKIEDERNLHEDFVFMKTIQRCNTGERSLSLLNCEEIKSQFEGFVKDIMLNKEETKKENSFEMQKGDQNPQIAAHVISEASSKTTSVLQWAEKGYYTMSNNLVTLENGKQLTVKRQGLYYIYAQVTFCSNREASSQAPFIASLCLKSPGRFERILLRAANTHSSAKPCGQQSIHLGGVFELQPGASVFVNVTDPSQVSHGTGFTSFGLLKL


target: T1, human gp39 (cell surface); assay: Scatchard analysis, 125I-labelled antibody competed with unlabelled antibody on gp39-CHO cells
Procedure: ^125I-labeled antibody was mixed and incubated with non-labeled antibody in a dilution series. Based on the total amount of bound antibody and the amount of free antibody, a Scatchard plot was generated from a […] graph. The total antibody concentration was based on a standard size of 75 kD for one active site.
The Kd was calculated by generating a "best fit" line. The inverse of the slope of the curve is the Kd. The correlation coefficient, r^2, was also computed.

Kd	Binder
5.6 nM	humanized 24-31 (version 1) (antibody, V domains shown, also called h24-31; humanized Version 1) VH: EVQLQESGPGLVKPSETLSLTCTVSGDSITNGFWIWIRKPPGNKLEYMGYISYSGSTYYNPSLKSRISISRDTSKNQFSLKLSSVTAADTGVYYCACRSYGRTPYYFDFWGQGTTLTVSS VL: DIVMTQSPSFLSASVGDRVTITCKASQNVITAVAWYQQKPGKSPKLLIYSASNRYTGVPDRFSGSGSGTDFTLTISSLQPEDFADYFCQQYNSYPYTFGGGTKLEIK
8.51 nM	murine antibody 24-31 (antibody, mouse IgG1, V domains shown, Murine IgG1 from hybridoma; also called anti-gp39 24-31 mAb; murine 24-31) VH: EVQLQESGPSLVKPSQTLSLTCSVTGDSITNGFWIWIRKFPGNKLEYMGYISYSGSTYYNPSLKSRISITRDTSQNQFYLQLNSVTTEDTGTYYCACRSYGRTPYYFDFWGQGTTLTVSS VL: DIVMTQSQKFMSTSVGDRVSITCKASQNVITAVAWYQQKPGQSPKLLIYSASNRYTGVPDRFSGSGSGTDFTLTISNMQSEDLADYFCQQYNSYPYTFGGGTKLEIK
14 nM	humanized 24-31 (version 2) (antibody, V domains shown, It was expressed from N5KG1 with human kappa and gamma 1 constant regions; also called humanized Version 2; #2 VL with #1 VH) VH: EVQLQESGPGLVKPSETLSLTCTVSGDSITNGFWIWIRKPPGNKLEYMGYISYSGSTYYNPSLKSRISISRDTSKNQFSLKLSSVTAADTGVYYCACRSYGRTPYYFDFWGQGTTLTVSS VL: DIVMTQSPDSLAVSLGERATINCKASQNVITAVAWYQQKPGQSPKLLIYSASNRYTGVPDRFSGSGSGTDFTLTISSLQAEDVADYFCQQYNSYPYTFGGGTKLEIK
